Experimental data from article PMC11443169 (Life Science Alliance, 2024).
Ends that are not written are not given here.

Legend:
[1] = Recovery of Aβ variants for elution from reversed-phase HPLC under different conditions; type: physicochemical
Text: Senile plaques, which are one of the key pathological features of Alzheimer’s disease (AD), are composed of amyloid β peptides (Aβs) with a variety of secondary and tertiary structures because of post-translational modifications ([Saido et al, 1995], [1996]). This heterogeneity appears to affect catabolism and aggregation rates, resulting in structural changes in plaques. […] In contrast, transgenic (Tg) mice overexpressing human APP with pathogenic mutations primarily accumulate Aβ1-40 and Aβ1-42 ([Sturchler-Pierrat et al, 1997]; [Kawarabayashi et al, 2001]). […] There is, however, some discrepancy among different reports regarding the quantity of Aβ variants, which vary depending on the methods employed. […] However, the use of a heated (50°C) basic solvent containing betaine and limited proteolysis using lysyl endopeptidase allows full recovery in HPLC and detection by mass spectrometry, respectively.
Supplementary file : Table S1. Recovery of various Aβ variants for elution from reversed-phase HPLC under different conditions. TFA, trifluoroacetic acid; TEA, triethylamine.

Experimental for rat hippocampus: (A, B, C, D, E, F) Variants of ^3H/^14C-Aβx-42 were subjected to in vivo degradation and subsequent analysis as previously described ([Iwata et al, 2000]). Briefly, 0.5 μg Aβx-42 peptide dissolved in phosphate-buffered saline was unilaterally injected into the CA1 sector of the rat hippocampus and subjected to catabolism until the animals were euthanized by decapitation at the indicated time points. There was no contamination of the injection area by plasma or cerebrospinal fluid as immunohistochemically confirmed using anti-rat IgG. After extraction, the products were analyzed by reversed-phase HPLC connected to a flow scintillation monitor. The HPLC profiles in a ^14C mode at time 0 (red), 10 (blue), and 30/60 (black) minutes after the in vivo injection are shown. […] The major peaks at time 0 indicated by the arrows correspond to the intact substrates.
Digitized data of remaining amounts of intact Aβx-42 shown in Fig 1 were plotted, and then exponential approximation curves were drawn using Microsoft Excel. Each analysis of the in vivo catabolic rate of the Aβx-42 variant was carried out by independent experiments with more than five time points.
Male, 8–10-wk-old, Sprague Dawley rats used for in vivo analysis of metabolic rates of radiolabeled Aβx-42 peptides were obtained from Japan SLC. […] They were housed in plastic cages. […]

Substance	Half-life (in vivo half-lives of Aβx-42) (rat hippocampus) [min]	Recovery for elution from reversed phase HPLC ([1]; solvent TEA/betaine (basic), temperature 50℃) [%]	Recovery for elution from reversed phase HPLC ([1]; solvent TFA, temperature 20℃) [%]	Recovery for elution from reversed phase HPLC ([1]; solvent TFA, temperature 50℃) [%]
Aβ17L-42: Aβ17L-42 (p3 fragment), internally radiolabeled (LVFFAEDVGSNKGAIIGLMVGGVVIA; also: internally radiolabeled, site not given here; UniProt P05067 688-713, looked up, fragment)	34.69			
Aβ1-40: amyloid β peptide 1-40		100	100	100
